Results reported in the supplement of paper PMC9732359.
± gives the uncertainty stated by the source.

Test: protein stability index of a GFP-peptide fusion (yeast GPS) (PSI 1-4); higher = more stable; sorted into four equal gates, so the index is relative within each strain
Conditions: pdr5∆
Procedure, shortened: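 Tiled 17-residue peptides from yeast proteins were fused downstream of GFP on a plasmid that also expresses Cherry, and the pooled library was carried in yeast. Mid-log cultures grown in leucine-free medium were sorted into four equal gates by GFP/Cherry fluorescence ratio. Plasmids from each gate were PCR-amplified and Illumina-sequenced, and reads were assigned to strains by barcodes. Each peptide's protein stability index is the sum, over gates, of the gate's read frequency multiplied by its gate number.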

| Sequence | protein stability index |
| --- | --- |
| CASIPIAIIKDTSDIIV [RRP46] | 1.88 ± 0.043 |

Same assay, conditions: san1∆

| Sequence | protein stability index |
| --- | --- |
| AGLEITSDNLLTITKAA [RPP1B] | 2.78 ± 0.064 |
| AGMTTIVRDLDRPGSKF [RPL3] | 2.95 ± 0.08 |
| AGNSQITSGGFLLKAYI [SRB5] | 2.24 ± 0.17 |
| AHAIDQMTWRQWLNNAL [POP8] | 2.41 ± 0.055 |
| AHIEKQSLDTIGGSDAA [RPO21] | 3.32 ± 0.12 |
| AHLWQKIHESIVFDICQ [PRP8] | 2.27 ± 0.13 |
| AIFPYQDPIFGSVLLTL [ECM29] | 1.29 ± 0.12 |
| AIIYQRGKDGKLHVAAK [YGL100W/SEH1] | 2.9 ± 0.13 |
| AIKDKLEQDLHFENAKV [YIL149C/MLP2] | 3.35 ± 0.069 |
| AIMNCADNSGARNLYII [RPL23A] | 2.52 ± 0.14 |
| AINLMGVKNNLLTPKSG [RPO31] | 2.76 ± 0.13 |
| AIPNPEDVVAISSRTFG [RPS0A] | 2.91 ± 0.077 |
| AIRADPAFKPTEKKFTK [RPL5] | 3.18 ± 0.2 |
| AIRKAPHNSKSLGFLQQ [RPN3] | 2.84 ± 0.083 |
| AISQSLRDESLTVDNLS [PRE5] | 3.33 ± 0.078 |
| AISTGNWSLKRFKMERA [RET1] | 2.44 ± 0.11 |
| AITHMIDALGTEFSKND [SCL1] | 2.7 ± 0.08 |
| AIVLPMKRADKFKDMGI [RPT5] | 3.09 ± 0.17 |
| AKEKERMLEEAIDHLKA [YIL149C/MLP2] | 3.16 ± 0.056 |
| AKEVKVLYHTSGAITFV [PRP8] | 2.58 ± 0.055 |
| AKIDVMLTIARLGFFYN [RPN7] | 3.42 ± 0.14 |
| AKLSDTLIIDQVRKDLG [NUT1] | 2.7 ± 0.13 |
| AKNFSAQKRVVSYMMPS [SRB8] | 2.28 ± 0.15 |
| AKQAKIRAGEFDVVLTT [SNF2] | 2.57 ± 0.12 |
| AKRAQFRKKRKFELGRQ [RPS8A] | 3.31 ± 0.066 |
| AKTFGASVRIFLYPSNI [RPL33A] | 2.5 ± 0.066 |

| Sequence | protein stability index |
| --- | --- |
| ALDFRNVSIVANYIKER [SMC4] | 1.51 ± 0.11 |
| ALECRLASAIASGLLRA [CSN12] | 1.77 ± 0.1 |
| ALGMMTRISSQFEKSRK [RET1] | 1.37 ± 0.17 |
| ALKDPQTDADRVKDPQW [RIP1] | 3.18 ± 0.25 |
| ALLIAGHDADDGYQLFH [PUP2] | 3.22 ± 0.12 |
| ALMRCSFEETVEILFEA [RPO21] | 3.06 ± 0.062 |
| ALRALQENGTIFRGSLI [YDL088C/ASM4] | 1.28 ± 0.1 |
| ALSAYHKVQTKLTRELE [RPS7B] | 2.33 ± 0.065 |
| ALSGNEGDASPFTDITV [RPB2] | 3.12 ± 0.099 |
| ALTTIKGVGRRYSNLVC [RPS18A] | 2.92 ± 0.12 |
| ALVAGIERYPLKVTKKH [RPL27A] | 1.87 ± 0.24 |
| AMEFIFGNSLICEDPET [SMC2] | 1.37 ± 0.094 |
| AMNDKDLTMGQVGERIK [RPO21] | 2.82 ± 0.13 |
| ANEQLKLFNRIVERETN [CSN12] | 1.71 ± 0.24 |
| ANGGSTIISPHKDIPEE [DSN1] | 3.57 ± 0.079 |
| ANHDDQDDIDEMVENSS [SRP68] | 3.14 ± 0.095 |
| ANIFRIHSKSMSVERGI [RPT1] | 3.18 ± 0.13 |
| ANLLQINVDNDPFFAQS [YML103C/NUP188] | 2.88 ± 0.055 |
| ANNDINSLLSNFNDIPP [YDL088C/ASM4] | 2.67 ± 0.27 |
| ANNGAAFSPLTTTRIQS [MED2] | 2.65 ± 0.066 |
| ANNYSSNIGNNSINNNN [YDL088C/ASM4] | 2.94 ± 0.085 |
| ANPKKLALMTAHSLSPK [CDC53] | 2.72 ± 0.057 |
| ANVELTPSNIRSLCEVL [RPC34] | 1.69 ± 0.078 |
| APGKVELAINLIRFDES [SMC2] | 3.52 ± 0.12 |
| APIKKIIERYIKSKADA [PRP8] | 2.98 ± 0.079 |
| APLKALVQEQVREFQRR [BRR2] | 1.3 ± 0.13 |

| Sequence | protein stability index |
| --- | --- |
| APLNFNPIIENNVDNKY [SSN2] | 2.79 ± 0.046 |
| APLNLEIPAYEFDGDKV [RIP1] | 2.55 ± 0.077 |
| APNHSPEIDNLDDLVVL [RRP6] | 3 ± 0.15 |
| APPQRPRFNRENKVSPA [RPS26A] | 3 ± 0.072 |
| AQANNNNNGLPQNGNIN [GAL11] | 3.05 ± 0.056 |
| AQAQAQAQAQAHAQHQP [GAL11] | 2.834 ± 0.027 |
| AQEDVPYLLPYILEAEA [QCR7] | 2.03 ± 0.067 |
| AQFRVPRYHSKNSFQQA [SWP82] | 2.37 ± 0.083 |
| AQKYASIVGVDLSSAAS [FAS2] | 1.66 ± 0.12 |
| AQNQGMFGAKPAGTSLF [YGL172W/NUP49] | 2.34 ± 0.075 |
| AQNVPMNIIQQQQQQNT [GAL11] | 2.45 ± 0.069 |
| AQSRNVEIEKRILKLGT [YGR119C/NUP57] | 3.33 ± 0.077 |
| AQSSHIRAIRKVISEIL [RPS1A] | 1.62 ± 0.031 |
| AQSVGCRVDFKNPHDII [RPL12A] | 2.23 ± 0.12 |
| AQYCYKNGLYQEAFKIY [SRP72] | 3.1 ± 0.069 |
| ARGTIEIVSDVKVVDAG [RPP0] | 1.96 ± 0.15 |
| ARKELPIFDYIHIDALE [SIR3] | 2.21 ± 0.059 |
| ARNVQVHQEPYVFNARP [RPS0A] | 2.99 ± 0.051 |
| ARQQVAQQLRNQQQQQQ [GAL11] | 2.85 ± 0.097 |
| ARRLKNRAARDRRAQRV [RPL19A] | 2.57 ± 0.13 |
| ARTATVSKKWAAAGVCE [RPL14B] | 3.58 ± 0.11 |
| ARTIKATLPYIKQDIPI [RPB2] | 2.26 ± 0.075 |
| ARYVIATSTKVSVEGVN [RPL6A] | 1.47 ± 0.11 |
| ASAGSKEGASTNWDDHA [YMR153W/NUP53] | 3.27 ± 0.077 |
| ASDESLLRYGGAFTIAL [RPN2] | 3.25 ± 0.098 |
| ASLADVMSIESLVEVVF [FAS1] | 1.78 ± 0.091 |

| Sequence | protein stability index |
| --- | --- |
| ASLKHDNETKAMLINLI [RPN3] | 2.8 ± 0.13 |
| ASPSAHTSSSDGNNEIF [RPN4] | 2.61 ± 0.067 |
| ASSAVMNRRKIAMPKRR [YLR335W/NUP2] | 1.23 ± 0.2 |
| ASSPIILEEGSSGMGAF [RPN10] | 2.99 ± 0.089 |
| ASTGSGKTLAFVIPILI [PRP28] | 1.48 ± 0.17 |
| ASVGDILKTLERSICAL [YML031W/NDC1] | 2.79 ± 0.086 |
| ATALQTCAGGRLFNVVV [SMC2] | 3.13 ± 0.15 |
| ATASAIAATAVASLVLA [RPL4A] | 1.91 ± 0.17 |
| ATFLLTDIKDTLTKISM [MCD1] | 2.88 ± 0.099 |
| ATKDNELNVKHVKQCQE [SMC2] | 2.97 ± 0.066 |
| ATQMTLNTFHFAGVASK [RPO21] | 2 ± 0.22 |
| ATSVESVDIGVETILSG [FAS2] | 2.13 ± 0.089 |
| AVDHRRQNRNQEIFDAN [RPL13A] | 3.23 ± 0.044 |
| AVEQRKKEKLDSGEVDA [DPB4] | 3.36 ± 0.1 |
| AVFKIVLQPLLPRELPK [SNU114] | 2.05 ± 0.095 |
| AVLKKIQSKAVEQGYED [YCG1] | 3.08 ± 0.072 |
| AVSTIASISLAIGYPTL [RPP0] | 1.53 ± 0.1 |
| AVSVANGFMHAGTTDNS [RPN2] | 1.17 ± 0.24 |
| AVVVRGRYAGKKVVIVK [RPL27A] | 3.03 ± 0.074 |
| AYFMVGAMGLLSSAGAK [RIP1] | 2.06 ± 0.18 |
| AYGNWFNGLKPLIQNSM [PRP8] | 2.85 ± 0.11 |
| AYLLLNAAGNTPDATKI [RPP2A] | 2.17 ± 0.051 |
| AYPGKLICPQYGTENKD [CSL4] | 1.72 ± 0.15 |
| AYSPKQDEQKHNENENS [RPO21] | 2.57 ± 0.09 |
| CANKYMTTVSGRDAFHL [RPL10] | 1.74 ± 0.2 |
| CASIPIAIIKDTSDIIV [RRP46] | 1.75 ± 0.065 |
